# Measurements taken from paper PMC6403000.
# Columns and labels:
# Assay in all cases: SEC
# [1] = biological target: CtHsp104 lacking the NTD (residues 153-882) (Calcarisporiella thermophila)
# [2] = biological target: CtHsp104 lacking the NTD and the CTT (residues 153-864) (Calcarisporiella thermophila)
# [3] = biological target: CtHsp104 lacking the NTD with mutated Walker B motifs (E275Q:E679Q) (Calcarisporiella thermophila)
# [4] = biological target: CtHsp104 lacking the NTD with mutated arginine fingers (R328M/R757M) (Calcarisporiella thermophila)
substance,measurement,setting,value
CtHsp104 lacking the NTD (residues 153-882) (domain or fragment),stoichiometry N,[1],6
CtHsp104 lacking the NTD and the CTT (residues 153-864) (domain or fragment),stoichiometry N,[2],6
CtHsp104 lacking the NTD with mutated Walker B motifs (E275Q:E679Q) (domain or fragment),stoichiometry N,[3],6
CtHsp104 lacking the NTD with mutated arginine fingers (R328M/R757M) (domain or fragment),stoichiometry N,[4],6
